Experimental data from article doi:10.1101/2024.09.28.615595.

Target: CsrA (Escherichia coli (K-12 MG1655?)) (UniProt P69913)
Assay: EMSA
Details: binding buffer, pH and temperature not given

CsrA (Escherichia coli (K-12 MG1655?)), sequence (P69913 whole entry): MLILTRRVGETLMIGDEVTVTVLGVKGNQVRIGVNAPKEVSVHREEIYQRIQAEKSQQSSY

Row | Sequence | binding | K half [nM]
1 | GGGAGAACGGUUAACUUAACGGAUGUUUCGCGGUGUGGGUGAGCAUGAUGGUUCACCGGCAUCUCAAUUCUCAUUUAAACGUACCUGCAGCGAAUGAAUACUGAAGCCACGCACGACCAAAAUGAAGCACUUACUACCGGCGCUCGCCUGCGUAAUGCUCGCGAACAACUAGGACUUAGUCAGCAGGCCGUUG [rodZ leader] | binds | –
2 | GGGAGAUUUGUGUUUAUCCCGAUUUUCGCGAUCGCAGCCGGAGUGGCGCAAUCCCUGCAAUACUUAAAUCGGUAUCAUGUGAUACGCGAGCCUCCGGAGCAUAUUUUGAACAGGUUACCUUCGAGCGCAUCGGCUUUAGCGUGCAGCGCCCACGCCCUGAAUCUCAUUGAGAAGCGAACGCUGGAUCAUGAGGAGAUGAAAGCAC [patA leader] | binds | –
3 | GGGAGGUAAUUUUGGUUUUCCCGGCCAAAAAUGGACAAUAACCACCAGGAAAAGGAGACGGAAUGCAUCACGCCACCCCGCUUAUCACCACCAUUGUUGGCGGCCUUGUGCUCGCCUUUAUCCUCGGCAUGCUGGCCAAUAAACUACGUAUUUCUCCUCUGG [ybaL leader] | binds | –
4 | GGGAGGUUUGCUUUUAGGUUAGCGACCGAAAAUAUAAAUGAUAAUCAUUAUUAAAGCCUUUAUCAUUUUGUGGAGGAUGAUAUGGAUACGUCACUGGCUGAGGAAGUACAGCAGACCAUGGCAACACUUGCGCCCAAUCGCUUUUUCUUUAUGUCGCCGUACCGCAGUUUUACGACGUCAG [entC leader] | binds | –
5 | GGGAUAAUGCGCUUUCUUUAGCCGUUAAUAUCCACCGGCAUGGCUGCGCGCCGUGCCGGUUCCUUCUUGCUUGGCGUCACUCUUUGAAGACGCAUUCUGCAGUUUACGAUGACUACUAUUGUUGACAGCAAUCUGCCGGUUGCCCGCCCGUCAUGGGAUCAUUCUCGUCUGGAAUCACGCAUUGUGCAUCUCGGUUGCGGGGCGUUUCGCAUGC [uxuB 5' UTR mutant (UPSTR mut)] | – | 144
